Test results published in publication PMC3683045.

Test system: preKARS2 (cytosolic precursor of human mitochondrial lysyl-tRNA synthetase) (human), Q15046-2
Assay: EMSA
Details: 10 mM Mg2+; unmodified T7 transcript; EMSA: 20 mM Tris-HCl pH 7.5, 150 mM NaCl, 10 mM MgCl2, 5 mM DTT, 10% glycerol, 0.1 mg/ml BSA, 30 C, 15 min; native 8% PAGE in 0.5x Tris-borate pH 8.3, 5% …

Sequence of preKARS2 (cytosolic precursor of human mitochondrial lysyl-tRNA synthetase) (human), Q15046-2 (Q15046 other isoform, or with tags, fused parts or gaps): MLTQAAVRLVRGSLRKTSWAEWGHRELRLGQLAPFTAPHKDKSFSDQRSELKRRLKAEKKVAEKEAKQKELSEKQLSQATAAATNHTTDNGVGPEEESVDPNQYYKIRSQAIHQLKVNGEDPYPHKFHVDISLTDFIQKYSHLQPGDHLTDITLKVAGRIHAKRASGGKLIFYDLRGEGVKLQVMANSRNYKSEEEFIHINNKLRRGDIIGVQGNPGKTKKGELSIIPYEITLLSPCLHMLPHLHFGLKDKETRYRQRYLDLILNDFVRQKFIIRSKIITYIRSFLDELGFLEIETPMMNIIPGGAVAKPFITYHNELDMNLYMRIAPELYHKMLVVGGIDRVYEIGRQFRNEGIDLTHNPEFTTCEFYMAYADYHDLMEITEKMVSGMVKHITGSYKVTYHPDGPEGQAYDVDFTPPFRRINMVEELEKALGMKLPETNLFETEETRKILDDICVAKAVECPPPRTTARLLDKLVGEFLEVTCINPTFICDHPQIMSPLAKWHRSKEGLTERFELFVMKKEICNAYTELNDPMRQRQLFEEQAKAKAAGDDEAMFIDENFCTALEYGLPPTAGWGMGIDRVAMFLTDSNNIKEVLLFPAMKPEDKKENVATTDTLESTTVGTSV

tRK1 (yeast tRNALys CUU)
Kd: 300 nM
